T1: human IL-1α (human, UniProt P01583 113-271)
T1 sequence (looked up): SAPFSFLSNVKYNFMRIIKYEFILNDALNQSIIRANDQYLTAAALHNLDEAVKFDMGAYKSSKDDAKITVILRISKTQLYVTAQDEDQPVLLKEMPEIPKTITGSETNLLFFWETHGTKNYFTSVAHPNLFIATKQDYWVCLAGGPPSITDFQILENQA


molecular target: T1, human IL-1α; assay: cell-based or functional assay

| Binder | ND50 [nM] |
| --- | --- |
| ABT1-20 (other) VH: EVQLLETGGGLVQPGGSLRLSCAASGFTFTPYRMGWVRQAPGKGLEWVSHIGIWGANTYYADSVKGRFTISRDNSKNTLYLQMNSLRAEDTAVYYCAKHPRPFDYWGQGTLVTVSS | 1000 |
| ABT1-22 (other) VH: EVQLLESGGGLVQPGGSLRLSCAASGFTLKAYNMSWVRQAPGKGLEWVSLISSTGMFTDYADSVKGRFTISRDNSKNTLYLQMNSLRAEDTAVYYCAKWGVRRGLYFDYWGQGTLVTVSS | 7000 |
| ABT1-23 (other) VH: EVQLLESGGGLVQPGGSLRLSCAASGFTFSSYPMEWVRQAPGKGLEWVSAIAWPGSMTYYADSVKGRFTISRDNSKNTLYLQMNSLRAEDTAVYYCAKTHRLFDYWGQGTLVTVSS | 5000 |
| ABT1-67 (other) VL: DIQMTQSPSSLSASVGDRVTITCRASQSIHRSLRWYQQKPGKAPKLLIYHASHLQSGVPSRFSGSGSGTDFTLTISSLQPEDFATYYCQQYKRRPSTFGQGTKVEIKR | 0.044 |
| ABT1-95-51 (other) VL: DIQMTQSPSSLSASVGDRVTITCRASQPIIRNLRWYQQKPGKAPKLLIYSSSYLEPGVPSRFSGSGSGTDFTLTISSLQPEDFATYHCQQGYRWPVTFGQGTKVEIKR | 615 |
| ABT1-95-133 (other) VL: DIQMTQSPSSLSASVGDRVTITCRASQPIVRNLRWYQQKPGKAPKLLIYSSSYLEPGVPSRFSGSGSGTDFTLTISSLQPEDFATYHCRQGYRWPVTFGQGTKVEIKR | 0.05 |
| ABT1-95-134 (other) VL: DIQMTQSPSSLSASVGDRVTITCRASQPIVRNLRWYQQKPGKAPKLLIYSSSYLEPGVPSRFSGSGSGTDFTLTISSLQPEDFATYHCAQGYRWPVTFGQGTKVEIKR | 0.075 |
| ABT1-95-135 (other) VL: DIQMTQSPSSLSASVGDRVTITCRASQPIVRNLRWYQQKPGKAPKLLIYSSSYLEPGVPSRFSGSGSGTDFTLTISSLQPEDFATYHCQQGYSWPVTFGQGTKVEIKR | 0.1 |
| ABT1-95-136 (other) VL: DIQMTQSPSSLSASVGDRVTITCRASQPIVRNLRWYQQKPGKAPKLLIYSSSYLEPGVPSRFSGSGSGTDFTLTISSLHPEDLATYHCQQGYGWPVTFGQGTKVEIKR | 0.1 |
| ABT1-95-137 (other) VL: DIQMTQSPSSLSASVGDRVTITCRASQPIVRNLRWYQQKPGKAPKLLIYSSSYLEPGVPSRFSGSGSGTDFTLTISSLQPEDFATYHCQQGYLWPVTFGQGTKVEIKR | 0.09 |
| ABT1-95-162 (other) VL: DIQMTQSPSSLSASVGDRVTITCRASKPIVRNLRWYQQKPGKAPKLLIYSSSYLEPGVPSRFSGSGSGTDFTLTISSLQPEDFATYHCQQGYRWPVTFGQGTKVEIKR | 0.186 |
| ABT1-95-163 (other) VL: DIQMTQSPSSLSASVGDRVTITCRASRPIVRNLRWYQQKPGKAPKLLIYSSSYLEPGVPSRFSGSGSGTDFTLTISSLQPEDFATYHCQQGYRWPVTFGQGTKVEIKR | 0.05 |
| ABT1-95-164 (other) VL: DIQMTQSPSSLSASVGDRVTITCRASQPGVRNLRWYQQKPGKAPKLLIYSSSYLEPGVPSRFSGSGSGTDFTLTISSLQPEDFATYHCQQGYRWPVTFGQGTKVEIKR | 0.15 |
| ABT1-95-165 (other) VL: DIQMTQSPSSLSASVGDRVTITCRASQPIVRNMRWYQQKPGKAPKLLIYSSSYLEPGVPSRFSGSGSGTDFTLTISSLQPEDFATYHCQQGYRWPVTFGQGTKVEIKR | 0.391 |
| ABT1-95-166 (other) VL: DIQMTQSPSSLSASVGDRVTITCRASQPIVRNLRWYQQKPGKAPKLLIYSKSYLEPGVPSRFSGSGSGTDFTLTISSLQPEDFATYHCQQGYRWPVTFGQGTKVEIKR | 0.035 |
| ABT1-95-167 (other) VL: DIQMTQSPSSLSASVGDRVTITCRASQPIVRNLRWYQQKPGKAPKLLIYSRSYLEPGVPSRFSGSGSGADFTLTISSLQPEDFATYHCQQGYRWPVTFGQGTKVEIKR | 0.469 |
| ABT1-95-168 (other) VL: DIQMTQSPSSLSASVGDRVTITCRASQPIVRNLRWYQQKPGKAPKLLIYSSSFLEPGVPSRFSGSGSGTDFTLTISSLQPEDFATYHCQQGYRWPVTFGQGTKVEIKR | 2.3 |
| ABT1-95-169 (other) VL: DIQMTQSPSSLSASVGDRVTITCRASQPIVRNLRWYQQKPGKAPKLLIYAVSYLEPGVPSRFSGSGSGTDFTLTISSLQPEDFATYHCQQGYRWPVTFGQGTKVEIKR | 0.093 |

| Binder | ND50 [nM] |
| --- | --- |
| ABT1-95-170 (other) VL: DIQMTQSPSSLSASVGDRVTITCRASRPIVRNLRWYQQKPGKAPKLLIYASSYLEPGVPSRFSGSGSGTDFTLTISSLQPEDFATYHCQQGYRWPVTFGQGTKVEIKR | 0.2 |
| ABT1-95-171 (other) VL: DIQMTQSPSSLSASVGDRVTITCRASRPIVRNLRWYQQKPGKAPKLLIYSVSYLEPGVPSRFSGSGSGTDFTLTISSLQPEDFATYHCQQGYRWPVTFGQGTKVEIKR | 0.059 |
| ABT1-95-172 (other) VL: DIQMTQSPSSLSASVGDRVTITCRASRPIVRNLRWYQQKPGKAPKLLIYAVSYLEPGVPSRFSGSGSGTDFTLTISSLQPEDFATYHCQQGYRWPVTFGQGTKVEIKR | 0.171 |
| ABT1-95-173 (other) VL: DIQMTQSPSSLSASVGDRVTISCRASRPIVRNLRWYQQKPGKAPKLLIYSSSYLEPGVPSRFSGSGSGTDFTLTISSLQPEDFATYHCRQGYRWPVTFGQGTKVEIKR | 0.151 |
| ABT1-95-175 (other) VL: DIQMTQSPSSLSASVGDRVTITCRASRPIVRNLRWYQQKPGKAPKLLIYASSYLEPGVPSRFSGSGSGTDFTLTISSLQPEDFATYHCRQGYRWPVTFGQGTKVEIKR | 0.017 |
| ABT1-95-176 (other) VL: DIQMTQSPSSLSASVGDRVTITCRASRPIVRNLRWYQQKPGKAPKLLIYAVSYLEPGVPSRFSGSGSGTDFTLTISSLQPEDFATYHCRQGYRWPVTFGQGTKVEIKR | 0.027 |
| ABT1-95-178 (other) VL: DIQMTQSPSSLSASVGDRVTITCRASQPIVRNLRWYQQKPGKAPKLLIYSVSYLEPGVPSRFSGSGSGTDFTLTISSLQPEDFATYHCRQGYRWPVTFGQGTKVEIKR | 0.004 |
| ABT1-95-179 (other) VL: DIQMTQSPSSLSASVGDRVTITCRASQPIVRNLRWYQQKPGKAPKLLIYSSSYLEPGVPSRFSGSGSGTDFTLTISSLQPEDFATYHCRQGYRWPPTFGQGTKVEIKR | 0.022 |
| ABT1-95-184 (other) VL: DIQMTQSPSSLSASVGDRVTITCRASRTPVRNLRWYQQKPGKAPKLLIYSRSYLEPGVPSRFSGSGSGTDFTLTISSLQPEDFATYHCLQGYRWPPTFGQGTKVEIKR | 0.006 |
| ABT1-95-A3 (other) VL: DIQMTQSPSSLSASVGDRVTITCRASKPGVRNMRWYQQKPGKAPKLLIYSVSYLEPGVPSRFSGSGSGTDFTLTISSLQPEDFATYHCLQGYRWPPTFGQGTKVEIKR | 0.011 |
| ABT1-95-A5 (other) VL: DIQMTQSPSSLSASVGDRVTITCRASRTPVRNLRWYQQKPGKAPKLLIYSRSFLEPGVPSRFSGSGSGTDFTLTISSLQPEDFATYHCLQGYRWPPTFGQGTKVEIKR | 0.016 |
| ABT1-95-A6 (other) VL: DIQMTQSPSSLSASVGDRVTITCRASKPGVRNMRWYQQKPGKAPKLLIYAKSYLEPGVPSRFSGSGSGTDFTLTISSLQPEDFATYHCKQGYRWPVQFGQGTKVEIKR | 0.024 |
| ABT1-97 (other) VH: EVQLLESGGGLVQPGGSLRLSCAASGFTFWEYDMYWVRQAPGKGLEWVSRISGSGRYTYYADSVKGRFTISRDNSKNTLYLQMNSLRAEDTAVYYCAKRSLTRPSQFDYWGQGTLVTVSS | 3000 |
| ABT1-99 (other) VH: EVQLLESGGGLVQPGGSLRLSCAASGFTFGKYSMTWVRQAPGKGLEWVSVIDPWGHYTYYADSVKGRFTISRDNSKNTLYLQMNSLRAEDTAVYYCAKSVDATLLRRYFDYWGQGTLVTVSS | 500 |
| ABT1-122-750x (other) VL: DIQMTQSPSSLSASVGDRVAITCSASQHIWTEISWYQQKPGKAPKLLIYGSASRQKGVPSRFSGSGSGTDFTLTISSLQPEDFATYYCKQFAYFPNTFGQGTKVEIKR | 0.713 |
| ABT1-141-29 (other) VL: DIQVTQSPSSLSASVGDRVTITCRASQWIQKQLAWYQLKPGKAPKLLIYSSSYLQSGVPSRFSGSGSGTDFTLTISSLQPEDFATYYCQQHLRVPFTFGQGTKVEIKR | 20 |
| ABT1-141-31 (other) VL: DIQMTQSPSSLSASVGDRVTITCRASQWIQKQLAWYQQKPGKAPKLLIYSSSWLQSGVPSRFSGSGSGTDFTLTISSLQPEDFATYYCQQHLRVPMTFGQGTKVEIKR | 2 |
| ABT1-141-32 (other) VL: DIQMTQSPSSLSASVGDRITITCRASQWIQKQLAWYQLKPGKAPKLLIYSSSYLQSGVPSRFSGSGSGTDFTLTISSLQPEDFATYYCQQHLRVPMTFGQGTKVEIKR | 10 |
